T1: Upstream protein 1 (Up1) from Desulfonema ishimotonii
T1 sequence: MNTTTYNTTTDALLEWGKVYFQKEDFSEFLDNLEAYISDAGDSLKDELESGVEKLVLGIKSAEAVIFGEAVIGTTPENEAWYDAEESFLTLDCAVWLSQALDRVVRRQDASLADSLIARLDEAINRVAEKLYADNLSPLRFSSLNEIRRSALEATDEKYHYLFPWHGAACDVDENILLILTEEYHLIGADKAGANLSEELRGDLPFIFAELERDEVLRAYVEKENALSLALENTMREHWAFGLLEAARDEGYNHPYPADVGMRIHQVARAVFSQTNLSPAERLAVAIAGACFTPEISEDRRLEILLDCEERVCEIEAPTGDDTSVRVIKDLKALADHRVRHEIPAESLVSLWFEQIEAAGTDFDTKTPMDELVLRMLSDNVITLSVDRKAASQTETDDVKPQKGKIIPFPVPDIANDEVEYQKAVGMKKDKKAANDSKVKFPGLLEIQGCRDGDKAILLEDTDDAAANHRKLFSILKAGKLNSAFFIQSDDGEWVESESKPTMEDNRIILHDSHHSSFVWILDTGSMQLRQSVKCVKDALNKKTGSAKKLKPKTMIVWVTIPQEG

B1: gRAMP-CHAT(H615A/C658A)-crRNA complex (enzyme, part only; not given: gRAMP, His tag, crRNA)
chain, part: MSNPIRDIQDRLKTAKFDNKDDMMNLASSLYKYEKQLMDSSEATLCQQGLSNRPNSFSQLSQFRDSDIQSKAGGQTGKFWQNEYEACKNFQTHKERRETLEQIIRFLQNGAEEKDADDLLLKTLARAYFHRGLLYRPKGFSVPARKVEAMKKAIAYCEIILDKNEEESEALRIWLYAAMELRRCGEEYPENFAEKLFYLANDGFISELYDIRLFLEYTEREEDNNFLDMILQENQDRERLFELCLYKARACFHLNQLNDVRIYGESAIDNAPGAFADPFWDELVEFIRMLRNKKSELWKEIAIKAWDKCREKEMKVGNNIYLSWYWARQRELYDLAFMAQDGIEKKTRIADSLKSRTTLRIQELNELRKDAHRKQNRRLEDKLDRIIEQENEARDGAYLRRNPPCFTGGKREEIPFARLPQNWIAVHFYLNELESHEGGKGGHALIYDPQKAEKDQWQDKSFDYKELHRKFLEWQENYILNEEGSADFLVTLCREIEKAMPFLFKSEVIPEDRPVLWIPHGFLHRLPLHAAMKSGNNSNIEIFWERHASRYLPAWHLFDPAPYSREESSTLLKNFEEYDFQNLENGEIEVYAPSSPKKVKEAIRENPAILLLLCAGEADMTNPFRSCLKLKNKDMTIFDLLTVEDVRLSGSRILLGAAESDMVPPLEFSVDEHLSVSGAFLSHKAGEIVAGLWTVDSEKVDECYSYLVEEKDFLRNLQEWQMAETENFRSENDSSLFYKIAPFRIIGFPAE

Experiments:
[1] = tested on: T1, Upstream protein 1 (Up1) from Desulfonema ishimotonii
[2] = tested on: TwinStrep-Up1Δloop mutant
[3] = tested on: Up1 fragment amino acids 296-565
[4] = tested on: Up1 fragment residues 396-565
[5] = tested on: Up1 single alanine substitution mutants
[6] = tested on: Up1 with D430 deleted
[7] = tested on: Up1 with M427 deleted
[8] = tested on: Up1-Up3 complex
[9] = target: Up1 fused to an 3×HA epitope tag (expressed from a plasmid in HEK293T cells) (Desulfonema ishimotonii); experiment: cell-based or functional assay

Molecule	Up1 cleavage in vitro (SDS-PAGE) [1]	Up1 cleavage in vitro (western blot) [2]	cleavage of truncated Up1 [3]	cleavage of truncated Up1 in vitro (SDS-PAGE) [4]	gRAMP-CHAT mediated protein cleavage of alanine mutants [5]	Up1 cleavage in vitro (western blot) [6]	Up1 cleavage in vitro (western blot) [7]	cleavage of Up1 within the Up1-Up3 complex (SDS-PAGE) [8]	proteolytic cleavage of Up1 in the purified Up1-Up3 complex (SDS-PAGE, Coomassie) [8]	cleavage of the protein substrate in vitro (SDS-PAGE) [1]	substrate turnover in vitro [1]	efficiency of Up1 cleavage in HEK293T cells across a panel of endogenous transcripts [9] [%]
gRAMP(D429A/D654A)-CHAT-crRNA complex	disrupting the catalytic sites of gRAMP (D429A/D654A) did not	–	–	–	–	–	–	–	–	–	–	–
gRAMP-CHAT-crRNA complex from Desulfonema ishimotonii	the largest protein, Up1, is specifically cleaved in response to target RNA	truncating the loop by four residues, or deleting M427 alone, prevented in vitro cleavage	Smaller versions of Up1 containing amino acids 296-565 retained full activity for processing	Up1 fragments containing residues 396-565 were fully active in vitro	No single alanine mutation blocks CHAT protease activity	the deletion of D430 had no effect	truncating the loop by four residues, or deleting M427 alone, prevented in vitro cleavage	an Up1-Up3 complex which could be cleaved by gRAMP-CHAT in the presence of target RNA	only in the lane with gRAMP-CHAT (+) and target RNA (+) the Up1 band becomes weaker and two new bands appear, at about 50 kDa and just above 15 kDa; much Up1 stays uncleaved; the Up3 band at 25 kDa is unchanged; no new bands without gRAMP-CHAT or with gRAMP-CHAT but without target RNA	the substrate is neighboring protein WP_124327587.1 (FIG. 2), that cleavage of the substrate is dependent on presence of a target RNA	cleaving 100-fold excess of Up1 substrate in minutes	3 to 22
B1	mutating the catalytic residues of the CHAT protease (H615A/C658A) abolished activity	–	–	–	–	–	–	–	–	–	–	–

— patent publication US20250129355A1
